Patent publication US20090169546A1

Target: HMG1 purified from calf (bovine) thymus (calf (bovine)) (UniProt P10103)
Assay: cell-based or functional assay

Chain of HMG1 purified from calf (bovine) thymus (calf (bovine)) (P10103 2-215 limits assumed): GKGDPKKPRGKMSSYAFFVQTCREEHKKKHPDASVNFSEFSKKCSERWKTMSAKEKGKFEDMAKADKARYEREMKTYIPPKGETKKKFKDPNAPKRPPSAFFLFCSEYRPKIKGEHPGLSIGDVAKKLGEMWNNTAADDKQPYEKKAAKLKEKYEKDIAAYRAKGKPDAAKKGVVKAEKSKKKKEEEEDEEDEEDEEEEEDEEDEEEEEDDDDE

RAGE-Fc fusion protein
IFN-a release from mouse bone marrow cells treated with CpG-A and thymus HMG1: > 95%
